Data published in PMC7806223.

Columns and labels:
[1] = target: LH1 αβ heterodimer (Rhodopseudomonas palustris CGA009) (UniProt Q6N9L4); assay: cryo-EM structure; RC-LH1_(16) complex purified from the ΔpufW strain (no protein-W); diluted in IMAC buffer (20 mM tris-HCl pH 8.0, 200 mM NaCl, 0.03% β-DDM); 2.80 Å
[2] = target: LH1 αβ heterodimer (Rhodopseudomonas palustris CGA009) (UniProt Q6N9L4); assay: cryo-EM structure; RC-LH1_(14)-W complex purified from the PufW-His strain; in IMAC buffer (20 mM tris-HCl pH 8.0, 200 mM NaCl, 0.03% β-DDM); 2.65 Å

stoichiometry N (αβ heterodimers in the closed ring) [1]: 16 | stoichiometry N (αβ heterodimers in the open ring) [2]: 14
Substance: LH1 αβ heterodimer (from UniProt Q6N9L4 1-50; Q6N9L5 2-53) (complex)
